Experimental data: the DeepSol protein solubility set

experiment: soluble on expression in E. coli; label from the status in PepcDB or PDB records

Soluble on expression in E. coli, not soluble:
MGSDKIHHHHHHMSIEFSRWPNNYMMSYQVTKALGLASLGATDVTEIYEACKKIDPNDKETWHREWLITAETLERHGKEAEAVGNWYTARNCYIRACNYNRIAEYTVMDDDNEKIRIFRKVNELFEAAGKYFDVKPEKIQVDYEDVKLDGYFFSPSWIKGPKPTILALNGGDEWSIENYFWLGPAFISCGYNFMVYDQPGTGLSMYEKGKGRRADSEAFHSRAIDFLLTRPEVDPNKIIVHGESFAAYDSLRFASFDHRIAAVISDGGTHAFDWEAMLKWMPPSLAGHGMRILGAKSLDDFAENPRFAYNLEGVLHQIECPLLVMHGAEEILVQPNPLTQALKNYEQAGSKNKTFFPIEDRRIGGLEHCQVDNINVLHEVVLNWLCSIGLGPFAPRPSDC
MGSDKIHHHHHHMSIGIVIASHGEFAAGIKQSGSMIFGEQEKVQVVTFMPSEGPTDLHAKIEAAIATFDAEDEVLVLADLWSGSPFNQASAVMGENPERKIAIITGLNLPMLIQAYTERMMDASAGVDKVVANIMKEAKGGIKVLPEELQPAEETAVAAAPAAVQGAIPEGTVIGDGKIKINLARIDSRLLHGQVATAWTPDSRANRIIVVSDTVSKDELRKKLIEQAAPTGVKANVIPIKKMIEVAKDPRFGDTKALLLFETPQDALATIEGGVPIETLNVGSMAHSTGKTMLNKVLSMDKDDVATFEKLRDLGVKFDVRKVPADSKSDLFGLINKADVQ
MGSDKIHHHHHHMSILTDSNETSHLPDSCSSTLGKQNFHNSLFSVPEAFEFSLVVVNDLVFAKRGKYLTDAELVVMRGALNNLDYEEIAHNSNYTVNYLQRCVAPLLWDTLSETIGNGDRVGKKKLRQILEELNQKYHIQSPFEPYLTLSSSDNSSLIIRGQLPEISNFYGRIHELNLLKELIFKHRCITLVGVAGVGKSSLATKLIVELSKKPRRQFDALIWKSLSHIPSLPELTHELIALIQPSLIPELPLSSSTHNLISILIQQLQSCPCLLVLDGFEALFQRSNFTERLEYSIFLNRLIDEASPSCLLLTTRILPDELNILIKNNPSTIKVFKVNGLDIDAATQLLSDLGLQQEENYQSLINTYWGNPLELKNVVSRIERFFSGSTLKFLENKTTLISLQLQTMLNEMFGQVLSDLQRRIMICITEDLVLTSQPISFAKLLTRLRQLPNLPVSTSELITDLEKLERLSLIESGKDNTTKEITFTLQPVVKKYINTDPAGLVHPSEQFTPYSTTTQKNTHAH
MGSDKIHHHHHHMSIRTRSRKSTPKQPESALRRWLKERHITEVECLVPDITGNARGKIIPADKFSHDYGTRLPEGIFATTVTGDFPDDYYALTSPSDSDMHLRPDASTVRMVPWAADPTAQVIHDCYTKDGQPHELAPRNVLRRVLEAYAEVKLQPVVAPELEFFLVQKNTDPDFPLLPPAGRSGRPETARQSYSIDAVNEFDPILDLMYDYCDAMELDVDTLIHESGAAQLEVNFTHADALSRADQVFLFKRTMREAALRHGVYATFLAKPMETEPGSAMHIHQSLLHAGTGKNVFSGKREGGFSDTFAHYLGGLQKYIPMAMGLLAPNVNSYRRLMFGEVSPSNVLWGFDNRTCGLRVPIDAPQNMRVESRFAGSDANPYLAMAATLACGLLGIREKLEPTAPISSNGKEQGYDLPRSLGEALDELEGCEALKEMLGPRFVRAYISVKRKEYETFFRVISSWEREFLLLNV
MGSDKIHHHHHHMSIVLKAIRFHRETDLFTDLNFEFPTGALTVLTGDSGSGKSTLLSLIAGYAAMPYEGTILLNGHDDRNAAMQVKAQHVGMMFQNPDQQFTMRTLSGELSFALENLNLPVAEIQRRFAQAVALGETQALLDRDLSTLSGGEKQRAALTVLLAMDAPILLLDEPFASIDPTSRHLLIGKLGTLRDHGKTIVIAEHDLTDYADVADQLVALKNGELSRLPLATLTTLPTHFNLTQPRQATNKIFHLENVVCQQNHHILLQAPSWDFNDGITTLTGANGSGKSTLLRSMVQRHPYQGRMFLGQQRLRRRKRLYQTMTLAVQDAAKQFVTLTLADELAFGPALPAAVREKQQAALAYLGLAEKQTTSLYQLSEGQKKMVQLMTMLSLDLSFLLLDEPFSGLDDRACQYFAAWIKAKSATQAFLIVTHRLAPLAGISQQQVLLANHRLQVVQG
MGSDKIHHHHHHMSKPAYLVEADGVNITKQIADRLLSLTVVDEAEQLSDRVEIVLDDRDKLLEIPKSGTWLKVYLGYAEGGKLPVYMGTYAVDDLTLSNGPRSMVVRATALETAPAMKDSRTQSWHDTTLGEIARTIASRSGLELRIVGDVGSIPIKHEDQTAESDIAFLTRLARRLKITAKPIDKALWITRRASDIPATPGVELAQRIVKGDEVSDWRATIKNRGAYSRVKARYFDQDEKKEKLLTVGPEDGNLQTFEEKQLYKTRDEAQRAADSRLQSLQSGEVTIDFSMEGDPEFTAEGQVTLQDFRALVDGTWYIRNVTHKFDGNGYRTTVTCGTKGEANNDWSAGRGENDKRSASEKGSLLCKTAQQLRGFSTQGGPDGGRNACVWAVNRVFQKAGLTTPWGGSNYVPDAEAALRRSGAQQVSGPEPGAIAIFTDGGNPPQAHIGIVTCDGGRVISNSSSRPTRTRLASPSEYQGFYSGPIRYYRLK
MGSDKIHHHHHHMSKPGAELEEVFSSVQGEGMLIGLRQVFIRFRGCNLTCDYCDTPAGTPAEPCRIEQTPGRRDFVPADNPVSLDRVAALVEGWQRGWPGVHDSISITGGEPLLRHDILMQWLPVLREHLPVYLETNGVMHAALGLVINHVDIIGMDIKIPSTSGCTDLWDDHRQFLEIANTRRAFIKIVVGEETEDWEITRASEIIAGVNRDIPLILQPVTRAGDTLGIKPVKALELQELACRYLAEVRIIPQTHRFMGQL
MGSDKIHHHHHHMSKSLFPFRFLLPVPVDHYENFPVASWLLPGRLREPVSAIYRFARSADDLADEGDAPPRARLQELARYHSELDRIERGEIPDDPIFGRLAAAIRAHALPLTPFRDLLSAFAQDIEKTRYASFGEVMDYCRRSANPVGRLMLHLYGDHDPRHQAYSDAICSSLQLINFLQDVAIDYAKGRIYLPQDELAAHHVSEAQIAAGDAGGLWRMMMHKQIERARKLLQAGAPLGRALDGRIGLELRVTIRGGETILRKLHADPGCVFGARPVLGKRDWIVMLARSVL
MGSDKIHHHHHHMSLCLFCDQPFTGDLDMRRLLLPGKSKTSCLCPSCRQLFAQIGTAFCPQCGRQQDSGEICQDCQKWRRIYQGNFLHNQAVYCYNQAFHDLMVRYKRYGDYLLCQVLQELAAPAVQKLAADYYVPVPTSPEHRKKRGYDTVWEIFTPLLPLTPLLAKKAGAGAQGEKDKKARMQAKQNFFLNPEFRGTITGKIILLDDIYTTGRTLYHARDAIEKAFPKCQVESFSISR
MGSDKIHHHHHHMSLEATDSKAMVLLMGVRRCGKSSICKVVFHNMQPLDTLYLESTSNPSLEHFSTLIDLAVMELPGQLNYFEPSYDSERLFKSVGALVYVIDSQDEYINAITNLAMIIEYAYKVNPSINIEVLIHKVDGLSEDFKVDAQRDIMQRTGEELLELGLDGVQVSFYLTSIFDHSIYEAFSRIVQKLIPELSFLENMLDNLIQHSKIEKAFLFDVNSKIYVSTDSNPVDIQMYEVCSEFIDVTIDLFDLYKAPVLRNSQKSSDKDNVINPRNELQNVSQLANGVIIYLRQMIRGLALVAIIRPNGTDMESCLTVADYNIDIFKKGLEDIWANARASQAKNSIEDDV
MGSDKIHHHHHHMSLHAPTFSKLFSGVIWKIIADSDTGTVYVETRDGDKRKALFHAFDLQAKKMLWADVSILDAWWSSLKIANKGNLLVVKFNDPDMPEQRGFAVIDGKTSKLLWGKDDAQVMQAEPDGIIVAEGKEEDSSYLKLDWAAGKTLGAVSVKEMFSGFNKKAQTRSFVLYPFHFEEENSFFSKIKEYIEIITGHKAVRMIEYLEKGDKVLISYYIYEEEKLTNFILVADEKGALLVHEKLNAGLKGIGMDTFFVLKDQLIVVKNNNELQSYVIK
MGSDKIHHHHHHMSLKELLKDRLSEEELKLVRRSFEIIGDVVIIEIPDEIMHHSRDIVEAILKRHKHVKTVLRKVGEVDGVYRVARYEPIYGEKTETVVREHGCRFLVDPTKAYYSVKLSGERERIARLVGEGERVLVMFAGVGPYPIVIAKLARPREVVGVELNPHAVEYFRQNVRLNKVEGVVKVIEGDVEEVVPQLSGQFDRVVMPAPYSAENFIHLLRGKVRRGGFVHYYTFDSQNEEKILPEKVRRKFEDEGLEVEVVKMRRCGNFAPYVNRYVLDLRVL
MGSDKIHHHHHHMSMEAASLDAVSEEQAQSVSILEQAIFATKQTDSSRAEELIRSLTEEALKGTVQWDKNLTVTFNKAITRLDDIISKQLAAIMHNEELQKLEGSWRGLHHTVKNSETNETLKIRVMSLSKKELHKDLSKAVEFDQSQMFKKIYEAEFGTPGGEPYGCLVGDYEFSNHPEDVETLSLISNVAAAGFCPFVSAAGSSLFGFDEWTELSKPRDLEKVFESLEYTQWRSFRDSDDSRFVTLTMPRVLARLPYGEATKPVEEFCYEEFELDLESGRAKVADHDDYCWMNAAYVMATNMGQAFSKYGFCTAIRGAEGGGKVEGLPAHVFTSDDGDPDLKCPTEIGITDRREAELSKLGFLPLCHYKHTDYAVFFGSQSCQKPKIMSNHDATANAAISARLPYLMATSRFAHYLKVMARDKIGSFMEAEDVESWLNRWILSFVNASEGGGQEIRAKYPLADAKVEVKEIPGQPGSYNAVAWLRPWLQMEELTASLRLVAKIPKVG
MGSDKIHHHHHHMSMILTSKFVDRERELNFLREHYHSGKAELIVIYGRRRIGKTYLLRKFLEETNGIYLLAEENETNLEDFSLRLADYFKDPFLKENPIRTWGAFFTYLAGKSTKRLVVVIDGVQYLVRAEKGFLSTLQKYWDLYLSSTKIMLILCGSLVSFMEGILSGKSPIYGRRTGTWKVEEMSFFDVLKFHPIDIETAIKIYGVFGGVPQYWVDYDPGKDFWENIKDLVLSKGAKYYDEPKYLLKEELRDVSRYFSILRAISLGYSRFGQIADAARIETKSLGKYLNVLEEMGYIREEKPIVGRGKTVYKINEHFFNFWFRFVFPRRSEIEMGFDVVEEIKKEFNNYLGPVFEEISRQFLIEMNKRKKLPFRFTKIGRWWYKGEEIDLVALNEDEKKALFIEVKWKNLERKEAYKILKDLKRKAELTGLHDWNKAYGIIAKSIMEKEELREEGFLAWDLRDFELIN
MGSDKIHHHHHHMSMVEEKFKKLGVENAPGQELLQKGVKLDLKGEKILGEKIDFSHGDVDAHKPLPNSLELFIEGFNKGGIQAYTEYKGNKEIREYIAGKLSEYIKMNIPADNLIITPGTQGALFLATGSLITRGTKVSIVEPDYFANRKLVEFFEGEIVPIELDYFNVNEKKAGLNLKQLEEAFKSGVELFLFSNPNNPTGVIYSDEEITEIARLVNKYNVTVIADELYSRQIFDNREFYHLITKNINQDKLITIIGPSKTESLSGFRLGIAYGSPTIIKRMEKLQAITTLRTAGYNQAVLKSWFSEPDGFMKDRIEKHQAIRDNLIEKFKTIDGIKIRKTEAGSYIFPTLPELEVNLGDFVKILRIYANVIVTPGTEFGKSFINSIRLNFSQDEKKAAEGVDRILEMIRRYKK
